These results are taken from publication PMC13174313 (bioRxiv, 2026).

Common to all, as to assay: ITC
Test [1] addresses TII: Tctex1 homodimer with two IC chains bound (D. melanogaster) (UniProt Q94524).
Test [2] concerns the target T1, D. melanogaster dynein light chain Tctex1 (D. melanogaster, UniProt Q94524 1-111).
T1 sequence: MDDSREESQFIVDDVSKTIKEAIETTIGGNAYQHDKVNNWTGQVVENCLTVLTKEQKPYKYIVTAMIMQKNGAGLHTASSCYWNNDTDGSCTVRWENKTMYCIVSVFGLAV

The target in test [3] is D. melanogaster dynein light chain LC8 (D. melanogaster, UniProt Q24117 1-89).
Sequence of D. melanogaster dynein light chain LC8 (D. melanogaster, UniProt Q24117 1-89) (Q24117 whole entry): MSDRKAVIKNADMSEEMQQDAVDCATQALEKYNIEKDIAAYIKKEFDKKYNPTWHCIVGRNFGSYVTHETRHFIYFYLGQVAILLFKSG

Regarding “D. melanogaster dynein light chain LC8 (from UniProt Q24117 1-89) (natural protein)”, the dH (TII -> TIILII) in test [1] is -108 kJ/mol.

B1: D. melanogaster dynein intermediate chain ICTL (domain or fragment, UniProt Q24246 84-143, looked up)
chain: SNTQTPDASLQATVNGQSGGKKQPLNLSVYNVQATNIPPKETLVYTKQTQTTSTGGGNGD
On to B1, for which, in test [2], the “dH, first IC on the Tctex1 dimer (TI)” value was -28.3 kJ/mol and the “dH, second IC on the Tctex1 dimer (TI to TII)” value was -20.8 kJ/mol. In test [3], the “dH, first IC on the LC8 dimer (LI)” value is -61.7 kJ/mol and the “dH, second IC on the LC8 dimer (LI to LII)” value is -63 kJ/mol.
